Source: publication PMC6302314

Key:
[1] = molecular target: tau K18 ΔK280 (I260C/C291A/C322A), labelled with Alexa488 or Alexa647; assay: FRET or BRET; single-molecule FRET between copies; 5 μM tau–Alexa488 + 5 μM tau–Alexa647, aggregation started with heparin (1:4 heparin/tau), 22-42 °C; aliquots diluted 12.500 times into low ionic strength buffer (no NaCl); confocal detection in a microfluidic channel, 6 min per time point
[2] = molecular target: tau K18 ΔK280 (I260C/C291A/C322A), labelled with Alexa488 or Alexa647; assay: FRET or BRET; single-molecule FRET between copies; 5 μM tau–Alexa488 + 5 μM tau–Alexa647, aggregation started with heparin (1:4 heparin/tau), 22-42 °C; aliquots diluted 12.500 times into high ionic strength buffer (0.5 M NaCl); confocal detection in a microfluidic channel, 6 min per time point

For “tau K18 ΔK280 (I260C/C291A/C322A), labelled with Alexa488 or Alexa647 (domain or fragment)”, which maximum observed concentration of type A oligomers (37 °C) [1] is on record?
Its maximum observed concentration of type A oligomers (37 °C) is 104 nM.

What about the maximum observed concentration of type B oligomers (37 °C) [2] of the same substance?
Its maximum observed concentration of type B oligomers (37 °C) is 37 nM.
